The values below come from patent publication US20090258363, “Targeted integration and expression of exogenous nucleic acid sequences” (Sangamo BioSciences, Inc., published 2009).

Targets include sca-36c ZFP-FokI (synthetic); sca-r29b ZFP-FokI (synthetic); sca-36a ZFP-FokI (synthetic); sca-36b ZFP-FokI (synthetic).
Holding throughout (assay): ZFP domain; assay not described
Holding throughout (conditions): tags: FokI C-terminal, 4-aa linker

sca-36a ZFP-FokI (synthetic), sequence (chain, as listed by the source): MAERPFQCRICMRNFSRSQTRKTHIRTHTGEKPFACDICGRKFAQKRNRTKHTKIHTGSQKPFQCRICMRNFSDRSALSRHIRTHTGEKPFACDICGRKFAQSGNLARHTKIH
sca-36c ZFP-FokI (synthetic), sequence (chain, as listed by the source): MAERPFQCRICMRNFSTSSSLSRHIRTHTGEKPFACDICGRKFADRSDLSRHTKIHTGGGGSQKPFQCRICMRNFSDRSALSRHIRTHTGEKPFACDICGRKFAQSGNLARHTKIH
sca-r29b ZFP-FokI (synthetic), sequence (chain, as listed by the source): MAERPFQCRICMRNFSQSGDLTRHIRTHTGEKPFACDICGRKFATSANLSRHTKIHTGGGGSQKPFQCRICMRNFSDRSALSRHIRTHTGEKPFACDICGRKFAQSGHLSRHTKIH
sca-36b ZFP-FokI (synthetic), sequence (chain, as listed by the source): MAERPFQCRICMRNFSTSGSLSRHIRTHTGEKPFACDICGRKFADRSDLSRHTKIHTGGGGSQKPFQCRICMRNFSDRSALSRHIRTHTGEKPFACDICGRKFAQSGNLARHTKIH

B1: sca-36c site (dsDNA)
DNA 1: GAAGTCTGCCGTT
DNA 2: AACGGCAGACTTC
On to B1, for which, in the data set with sca-36c ZFP-FokI, the binding result is recorded as “binds”.

B2: sca-r29b site (dsDNA)
DNA 1: ACGTAGACTGAGG
DNA 2: CCTCAGTCTACGT
Turning to B2, the binding result with sca-r29b ZFP-FokI is reported as “binds”.

B3: sca-36a site (dsDNA)
DNA 1: GAAGTCTGCCGT
DNA 2: ACGGCAGACTTC
Take B3: in the data set with sca-36a ZFP-FokI, the binding result is given as “binds”.

B4: sca-36b site (dsDNA)
DNA 1: GAAGTCTGCCGTT
DNA 2: AACGGCAGACTTC
Regarding B4, the binding result with sca-36b ZFP-FokI is on record as “binds”.
